{
  "source": "patent US11007356B2",
  "about": "“Ingestible device for delivery of therapeutic agent to the gastrointestinal tract” (Progenity, Inc., priority 2018, dated 2021)",
  "key": {"[1]": {"assay": "Dosing regimen model: required bioavailability for ingestible device (Tables 16, 17)", "settings": "for Eff. Dose: baseline dose x bioavailability, SC (Table 17), assumed weight 70 kg; for Eff Dose: approved dose x bioavailability of the approved route (Table 16)"}, "[2]": {"settings": "cited from earlier work"}, "blood glucose": {"system": "blood glucose", "assay": "Euglycemic clamp procedure (PD) in swine (Example 3)", "assay_type": "in vivo, Yorkshire female swine", "description": "(§1) Blood samples were kept on wet ice until centrifugation and separation of plasma. […] Glucose was monitored every five (5) minutes during the study by portable glucose analyzer (StatStrip (SS) hospital glucose monitoring system (Nova Biomedical, Waltham, Mass.)). At each time point, approximate 0.1 mL of blood was drawn and immediately placed on a glucose monitoring test strip, and the whole blood glucose concentration was measured by the SS in triplicate.\nA euglycemic clamp procedure (ECP) was employed to compare pharmacokinetics and pharmacodynamics of regular human Insulin (NOVOLIN® R) delivered subcutaneously (SC) in the neck versus intra-jejunally (IJ) by the jet delivery device in the small intestine. ECP was used to quantify the amount of glucose required to maintain normoglycemia after exogenous bolus of insulin. […] The animals were anesthetized for the entire ECP."}, "[3]": {"assay": "Insulin PK after SC or intra-jejunal (IJ) jet delivery in swine (Example 3)", "assay_type": "in vivo, Yorkshire female swine", "settings": "for Cmax of blood insulin, Average / Tmax of blood insulin, Average: average of animals; for Cmax of blood insulin / Tmax of blood insulin: individual animals", "description": "A total of 18 Yorkshire female swine in good health and weighing 60-70 kg each were included in this study. Swine were divided into two groups with 9 animals per group. […] A sham surgical laparotomy was performed. […] The jet delivery device was configured with the single nozzle in an axial orientation.\nSwine were divided into two groups with 9 animals per group. […] In all 18 animals, a laparotomy procedure was performed to expose the abdominal cavity. Animals remained under anesthesia during the entire procedure for the PK/PD study.\nFor the laparotomy in group 02, a small segment of the jejunal mucosa and serosa was exposed by midline laparotomy and the jet delivery device was inserted through antimesenteric incision.\nas §1\nThe animals were anesthetized for the entire ECP."}, "[4]": {"settings": "pig, in vivo"}, "[5]": {"settings": "IJ administration via jet delivery device, ~40 U"}, "[6]": {"settings": "SC administration group compared with IJ administration group"}},
  "note": "Values joined by “and” are separate entries in the source; they are usually repeats but may differ in a detail not shown here. Equal entries are not always repeated. Where two headings read alike, the source gives them in different places. Marks after values point to notes of the source that are not given here.",
  "data": [
    {"molecule": "glucagon", "values": [
      {"measurement": "Eff. Dose", "setting": "[1]", "value": 2.0, "unit": "mg"},
      {"measurement": "Bioavail. (Baseline dose)", "setting": "[2]; in vivo, sc", "value": 100.0, "unit": "%"}
    ]},
    {"molecule": "certolizumab pegol", "values": [
      {"measurement": "Eff Dose", "setting": "[1]", "value": 160, "unit": "mg"},
      {"measurement": "Bio Avail (Approved Dosing Info)", "setting": "[2]; in vivo, sc", "value": 80, "unit": "%"}
    ]},
    {"molecule": "denosumab", "values": [
      {"measurement": "Eff Dose", "setting": "[1]", "value": 36.6, "unit": "mg"},
      {"measurement": "Bio Avail (Approved Dosing Info)", "setting": "[2]; in vivo, sc", "value": 61, "unit": "%"}
    ]},
    {"molecule": "Novolin® R: regular human insulin (NOVOLIN® R)", "values": [
      {"measurement": "mean dextrose infusion rate, IJ vs SC", "setting": "blood glucose; first 70 minutes after administration", "value": "higher in the IJ administration group"},
      {"measurement": "mean dextrose infusion rate, IJ vs SC", "setting": "blood glucose; from 75 minutes to 420 minutes post-administration", "value": "higher in the SC administration group"},
      {"measurement": "Cmax of blood insulin, Average", "setting": "[3]; [5]", "value": 77.40, "unit": "uIU/mL"},
      {"measurement": "Tmax of blood insulin, Average", "setting": "[3]; [5]", "value": 0.9272, "unit": "h"},
      {"measurement": "Cmax of blood insulin", "setting": "[3]; [5]", "value": "40.93 uIU/mL and 96.77 uIU/mL and 5.03 uIU/mL and 7.96 uIU/mL and 48.77 uIU/mL and 85.38 uIU/mL and 207.96 uIU/mL and 126.39 uIU/mL"},
      {"measurement": "Tmax of blood insulin", "setting": "[3]; [5]", "value": "20 min and 50 min and 90 min (2×) and 40 min (3×)"},
      {"measurement": "AUC of blood insulin, SC vs IJ", "setting": "[3]; [6]", "value": "higher than that of the IJ administration group"},
      {"measurement": "maximum plasma concentration Cmax, SC vs IJ", "setting": "[3]; [6]", "value": "higher than that of the IJ administration group"},
      {"measurement": "Cmax of blood insulin, Average", "setting": "[3]; SC administration", "value": 202.94, "unit": "uIU/mL"},
      {"measurement": "Tmax of blood insulin, Average", "setting": "[3]; SC administration", "value": 1.452, "unit": "h"},
      {"measurement": "Cmax of blood insulin", "setting": "[3]; SC administration", "value": "451.00 uIU/mL and 60.74 uIU/mL and 354.00 uIU/mL and 356.60 uIU/mL and 65.71 uIU/mL and 59.18 uIU/mL and 73.34 uIU/mL"},
      {"measurement": "Tmax of blood insulin", "setting": "[3]; SC administration", "value": "50 min (2×) and 180 min and 105 min and 30 min and 120 min"},
      {"measurement": "time to maximum plasma concentration (Tmax)", "setting": "[3]; jejunum administration group (jet delivery device)", "value": 0.9272, "unit": "h"}
    ]},
    {"molecule": "CC[C@H](C)[C@H](NC(=O)[C@H](CCC(=O)O)NC(=O)[C@H](CO)NC(=O)[C@@H](NC(=O)[C@@H](N)CO)C(C)C)C(=O)N[C@@H](CCC(N)=O)C(=O)N[C@@H](CC(C)C)C(=O)N[C@@H](CCSC)C(=O)N[C@@H](Cc1cnc[nH]1)C(=O)N[C@@H](CC(N)=O)C(=O)N[C@@H](CC(C)C)C(=O)NCC(=O)N[C@@H](CCCCN)C(=O)N[C@@H](Cc1cnc[nH]1)C(=O)N[C@@H](CC(C)C)C(=O)N[C@@H](CC(N)=O)C(=O)N[C@@H](CO)C(=O)N[C@@H](CCSC)C(=O)N[C@@H](CCC(=O)O)C(=O)N[C@@H](CCCN=C(N)N)C(=O)N[C@H](C(=O)N[C@@H](CCC(=O)O)C(=O)N[C@@H](Cc1c[nH]c2ccccc12)C(=O)N[C@@H](CC(C)C)C(=O)N[C@@H](CCCN=C(N)N)C(=O)N[C@@H](CCCCN)C(=O)N[C@@H](CCCCN)C(=O)N[C@@H](CC(C)C)C(=O)N[C@@H](CCC(N)=O)C(=O)N[C@@H](CC(=O)O)C(=O)N[C@H](C(=O)N[C@@H](Cc1cnc[nH]1)C(=O)N[C@@H](CC(N)=O)C(=O)N[C@@H](Cc1ccccc1)C(=O)O)C(C)C)C(C)C", "note": "[teriparatide]", "values": [
      {"measurement": "Eff Dose", "setting": "[1]", "value": 0.02, "unit": "mg"},
      {"measurement": "Bio Avail (Approved Dosing Info)", "setting": "[2]; SC administration", "value": 95, "unit": "%"}
    ]},
    {"molecule": "somatropin", "values": [
      {"measurement": "Eff. Dose", "setting": "[1]", "value": 0.8, "unit": "mg"},
      {"measurement": "Bioavail. (Baseline dose)", "setting": "[2]; in vivo, sc", "value": 80.5, "unit": "%"}
    ]},
    {"molecule": "dulaglutide", "values": [
      {"measurement": "Eff Dose", "setting": "[1]", "value": 0.49, "unit": "mg"},
      {"measurement": "Bioavailability relative to IV", "setting": "[4]", "value": "26.51 ± 6.55", "unit": "% ^a"},
      {"measurement": "Bioavailability relative to SC", "setting": "[4]", "value": "49.11 ± 0.08", "unit": "% ^a"},
      {"measurement": "(AUC)T0-T240 h ± SEM", "setting": "[4]; 1.2 mg", "value": "4355.86 ± 1094.57^a ng.hr/mL"},
      {"measurement": "AUCID (± SEM)", "setting": "[4]; 1.2 mg", "value": "3890.00 ± 94.73", "unit": "ng·h/mL"},
      {"measurement": "Tmax", "setting": "[4]; 1.2 mg", "value": 8, "unit": "h"},
      {"measurement": "(AUC)T0-T240 h ± SEM", "setting": "[4]; iv, 1.2 mg", "value": "16429.33 ± 600.93", "unit": "ng·h/mL"},
      {"measurement": "Tmax", "setting": "[4]; iv, 1.2 mg", "value": 1, "unit": "h"},
      {"measurement": "(AUC)T0-T240 h ± SEM", "setting": "[4]; sc, 1.2 mg", "value": "8869 ± 887.33", "unit": "ng·h/mL"},
      {"measurement": "Tmax", "setting": "[4]; sc, 1.2 mg", "value": 6, "unit": "h"},
      {"measurement": "Bio Avail (Approved Dosing Info)", "setting": "[2]; in vivo, sc", "value": 65, "unit": "%"}
    ]},
    {"molecule": "ustekinumab", "values": [
      {"measurement": "Eff Dose", "setting": "[1]", "value": 35.1, "unit": "mg"},
      {"measurement": "Bio Avail (Approved Dosing Info)", "setting": "[2]; in vivo, sc", "value": 78, "unit": "%"}
    ]},
    {"molecule": "etanercept", "values": [
      {"measurement": "Eff Dose", "setting": "[1]", "value": 29.0, "unit": "mg"},
      {"measurement": "Bio Avail (Approved Dosing Info)", "setting": "[2]; in vivo, sc", "value": 58, "unit": "%"}
    ]},
    {"molecule": "tocilizumab", "values": [
      {"measurement": "Eff Dose", "setting": "[1]", "value": 129.6, "unit": "mg"},
      {"measurement": "Bio Avail (Approved Dosing Info)", "setting": "[2]; in vivo, sc", "value": 80, "unit": "%"}
    ]},
    {"molecule": "alirocumab", "values": [
      {"measurement": "Eff Dose", "setting": "[1]", "value": 63.8, "unit": "mg"},
      {"measurement": "Bio Avail (Approved Dosing Info)", "setting": "[2]; in vivo, sc", "value": 85, "unit": "%"}
    ]},
    {"molecule": "CC[C@H](C)[C@H](NC(=O)[C@H](Cc1ccccc1)NC(=O)[C@H](CCC(=O)O)NC(=O)[C@H](CCCCNC(=O)COCCOCCNC(=O)COCCOCCNC(=O)CC[C@H](NC(=O)CCCCCCCCCCCCCCCCC(=O)O)C(=O)O)NC(=O)[C@H](C)NC(=O)[C@H](C)NC(=O)[C@H](CCC(N)=O)NC(=O)CNC(=O)[C@H](CCC(=O)O)NC(=O)[C@H](CC(C)C)NC(=O)[C@H](Cc1ccc(O)cc1)NC(=O)[C@H](CO)NC(=O)[C@H](CO)NC(=O)[C@@H](NC(=O)[C@H](CC(=O)O)NC(=O)[C@H](CO)NC(=O)[C@@H](NC(=O)[C@H](Cc1ccccc1)NC(=O)[C@@H](NC(=O)CNC(=O)[C@H](CCC(=O)O)NC(=O)C(C)(C)NC(=O)[C@@H](N)Cc1cnc[nH]1)[C@@H](C)O)[C@@H](C)O)C(C)C)C(=O)N[C@@H](C)C(=O)N[C@@H](Cc1c[nH]c2ccccc12)C(=O)N[C@@H](CC(C)C)C(=O)N[C@H](C(=O)N[C@@H](CCCNC(=N)N)C(=O)NCC(=O)N[C@@H](CCCNC(=N)N)C(=O)NCC(=O)O)C(C)C", "note": "[Semaglutide, semaglutide]", "values": [
      {"measurement": "Bio Avail (Approved Dosing Info)", "setting": "[2]; in vivo, sc", "value": 89, "unit": "%"}
    ]},
    {"molecule": "natalizumab", "values": [
      {"measurement": "Eff Dose", "setting": "[1]", "value": 300, "unit": "mg"},
      {"measurement": "Bio Avail (Approved Dosing Info)", "setting": "[2]; in vivo, iv", "value": 100, "unit": "%"}
    ]},
    {"molecule": "vedolizumab", "values": [
      {"measurement": "Eff Dose", "setting": "[1]", "value": 300, "unit": "mg"},
      {"measurement": "Bio Avail (Approved Dosing Info)", "setting": "[2]; in vivo, iv", "value": 100, "unit": "%"}
    ]},
    {"molecule": "golimumab", "values": [
      {"measurement": "Eff Dose", "setting": "[1]", "value": 25.5, "unit": "mg"},
      {"measurement": "Bio Avail (Approved Dosing Info)", "setting": "[2]; in vivo, sc", "value": 51, "unit": "%"}
    ]},
    {"molecule": "secukinumab", "values": [
      {"measurement": "Eff Dose", "setting": "[1]", "value": 109.5, "unit": "mg"},
      {"measurement": "Bio Avail (Approved Dosing Info)", "setting": "[2]; in vivo, sc", "value": 73, "unit": "%"}
    ]}
  ]
}
